Columns and labels:
mouse TREM2 (mouse) [1] = biological target: mouse TREM2 (mouse) (UniProt Q99NH8); assay: MFI on CT26 cells over-expressing mouse TREM2 and DAP12; control in the row of EOS006181
mouse TREM2 (mouse) [2] = biological target: mouse TREM2 (mouse) (UniProt Q99NH8); assay: MFI on CT26 cells over-expressing mouse TREM2 and DAP12; control in the row of EOS006170
mouse TREM2 (mouse) [3] = biological target: mouse TREM2 (mouse) (UniProt Q99NH8); assay: MFI on CT26 cells over-expressing mouse TREM2 and DAP12; control in the row of EOS006162
mouse TREM2 (mouse) [4] = biological target: mouse TREM2 (mouse) (UniProt Q99NH8); assay: MFI on CT26 cells over-expressing mouse TREM2 and DAP12; control in the row of EOS006165
mouse TREM2 (mouse) [5] = biological target: mouse TREM2 (mouse) (UniProt Q99NH8); assay: MFI on CT26 cells over-expressing mouse TREM2 and DAP12; control in the row of EOS006166
mouse TREM2 (mouse) [6] = biological target: mouse TREM2 (mouse) (UniProt Q99NH8); assay: MFI on CT26 cells over-expressing mouse TREM2 and DAP12; control in the row of EOS006164
mouse TREM2 (mouse) [7] = biological target: mouse TREM2 (mouse) (UniProt Q99NH8); assay: MFI on CT26 cells over-expressing mouse TREM2 and DAP12; control in the row of EOS006168
mouse TREM2 (mouse) [8] = biological target: mouse TREM2 (mouse) (UniProt Q99NH8); assay: MFI on CT26 cells over-expressing mouse TREM2 and DAP12; control in the row of Ab52
mouse TREM2 (mouse) [9] = biological target: mouse TREM2 (mouse) (UniProt Q99NH8); assay: MFI on CT26 cells over-expressing mouse TREM2 and DAP12; control in the row of EOS006175
mouse TREM2 (mouse) [10] = biological target: mouse TREM2 (mouse) (UniProt Q99NH8); assay: MFI on CT26 cells over-expressing mouse TREM2 and DAP12; control in the row of EOS006180
mouse TREM2 (mouse) [11] = biological target: mouse TREM2 (mouse) (UniProt Q99NH8); assay: MFI on CT26 cells over-expressing mouse TREM2 and DAP12; control in the row of EOS006172
mouse TREM2 (mouse) [12] = biological target: mouse TREM2 (mouse) (UniProt Q99NH8); assay: MFI on CT26 cells over-expressing mouse TREM2 and DAP12; control in the row of EOS006173
mouse TREM2 (mouse) [13] = biological target: mouse TREM2 (mouse) (UniProt Q99NH8); assay: MFI on CT26 cells over-expressing mouse TREM2 and DAP12; control in the row of EOS006169
mouse TREM2 (mouse) [14] = biological target: mouse TREM2 (mouse) (UniProt Q99NH8); assay: MFI on CT26 cells over-expressing mouse TREM2 and DAP12; control in the row of EOS006177
mouse TREM2 (mouse) [15] = biological target: mouse TREM2 (mouse) (UniProt Q99NH8); assay: MFI on CT26 cells over-expressing mouse TREM2 and DAP12; control in the row of EOS006179
mouse TREM2 (mouse) [16] = biological target: mouse TREM2 (mouse) (UniProt Q99NH8); assay: MFI on CT26 cells over-expressing mouse TREM2 and DAP12; control in the row of EOS006178
mouse TREM2 (mouse) [17] = biological target: mouse TREM2 (mouse) (UniProt Q99NH8); assay: MFI on CT26 cells over-expressing mouse TREM2 and DAP12; control in the row of EOS006167
mouse TREM2 (mouse) [18] = biological target: mouse TREM2 (mouse) (UniProt Q99NH8); assay: MFI on CT26 cells over-expressing mouse TREM2 and DAP12; control in the row of EOS006174
mouse TREM2 (mouse) [19] = biological target: mouse TREM2 (mouse) (UniProt Q99NH8); assay: MFI on CT26 cells over-expressing mouse TREM2 and DAP12; control in the row of EOS006163
mouse TREM2 (mouse) [20] = biological target: mouse TREM2 (mouse) (UniProt Q99NH8); assay: MFI on CT26 cells over-expressing mouse TREM2 and DAP12; control in the row of EOS006176
mouse TREM2 (mouse) [21] = biological target: mouse TREM2 (mouse) (UniProt Q99NH8); assay: MFI on CT26 cells over-expressing mouse TREM2 and DAP12; control in the row of PN-37012

Chain of mouse TREM2 (mouse) (Q99NH8 19-227): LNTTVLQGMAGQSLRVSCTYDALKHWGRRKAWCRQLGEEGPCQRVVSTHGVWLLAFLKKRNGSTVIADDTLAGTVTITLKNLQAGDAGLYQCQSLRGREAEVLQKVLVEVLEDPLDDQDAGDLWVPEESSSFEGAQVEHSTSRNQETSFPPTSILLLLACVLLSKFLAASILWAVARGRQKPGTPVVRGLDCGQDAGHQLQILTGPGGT

## Isotype control (antibody)
Mouse TREM2 (mouse) [1]
  Isotype control on CT26-TREM2 MFI: 345 MFI
Mouse TREM2 (mouse) [2]
  Isotype control on CT26-TREM2 MFI: 679 MFI
Mouse TREM2 (mouse) [3]
  Isotype control on CT26-TREM2 MFI: 2170 MFI
Mouse TREM2 (mouse) [4]
  Isotype control on CT26-TREM2 MFI: 2170 MFI
Mouse TREM2 (mouse) [5]
  Isotype control on CT26-TREM2 MFI: 295 MFI
Mouse TREM2 (mouse) [6]
  Isotype control on CT26-TREM2 MFI: 345 MFI
Mouse TREM2 (mouse) [7]
  Isotype control on CT26-TREM2 MFI: 2170 MFI
Mouse TREM2 (mouse) [8]
  Isotype control on CT26-TREM2 MFI: 402 MFI
Mouse TREM2 (mouse) [9]
  Isotype control on CT26-TREM2 MFI: 679 MFI
Mouse TREM2 (mouse) [10]
  Isotype control on CT26-TREM2 MFI: 2170 MFI
Mouse TREM2 (mouse) [11]
  Isotype control on CT26-TREM2 MFI: 2170 MFI
Mouse TREM2 (mouse) [12]
  Isotype control on CT26-TREM2 MFI: 679 MFI
Mouse TREM2 (mouse) [13]
  Isotype control on CT26-TREM2 MFI: 679 MFI
Mouse TREM2 (mouse) [14]
  Isotype control on CT26-TREM2 MFI: 345 MFI
Mouse TREM2 (mouse) [15]
  Isotype control on CT26-TREM2 MFI: 679 MFI
Mouse TREM2 (mouse) [16]
  Isotype control on CT26-TREM2 MFI: 345 MFI
Mouse TREM2 (mouse) [17]
  Isotype control on CT26-TREM2 MFI: 2170 MFI
Mouse TREM2 (mouse) [18]
  Isotype control on CT26-TREM2 MFI: 345 MFI
Mouse TREM2 (mouse) [19]
  Isotype control on CT26-TREM2 MFI: 402 MFI
Mouse TREM2 (mouse) [20]
  Isotype control on CT26-TREM2 MFI: 345 MFI
Mouse TREM2 (mouse) [21]
  Isotype control on CT26-TREM2 MFI: 302 MFI

From US20250282868A1
